Laboratory results reported in patent US12618835B2, “Multiplex microelectrode array for detection of proteases as biomarkers” (Kansas State University Research Foundation, priority 2021, dated 2026).
Values joined by “and” are separate entries in the source; they are usually repeats but may differ in a detail not shown here. Equal values may be shown once. Where no end group is shown, it is not given here. [ ]: non-standard residue; d: D form. The star is where a group is joined. aminomethylferrocene = [Fe+2].c1cc[c-](CN*)c1.c1cc[cH-]c1; Ava = NCCCCC(=O)O

Target: cathepsin B (Homo sapiens, UniProt P07858)
Assay: Electrochemical (AC voltammetry) proteolysis of peptide-Fc substrates on 3x3 Au MEA, Example 1
Format: biochemical
Parameters: purchased R&D Systems Inc. (Minneapolis, MN)
Conditions: for 1/τ AVG: average of 3 channels per peptide, 50 mM MES buffer pH=5.0, FIG. 8; for average values of 1/τ: three peptides on one MEA, 3 channels each, 50 mM MES pH=5.0
Description: N-Fluorenylmethyloxycarbonyl (Fmoc) protected amino acids, amino acid attached 2-chlorotrityl resins, 1-[bis(dimethylamino)methylene]-1H-1,2,3-triazolo[4,5-b]pyridinium 3-oxide hexafluorophosphate (HATU), and 2-(1H-benzotriazol-1-yl)-1,1,3,3-tetramethyluronium hexafluorophosphate (HBTU) were purchased from Chem-Impex International, Inc. (Wood Dale, IL) and AAPPTEC LLC (Louisville, KY). Potassium hexacyanoferrate (II) trihydrate, potassium nitrate, 1-ethyl-3-(3-dimethylaminopropyl)carbodiimide (EDC), N-hydroxysulfosuccinimide (Sulfo-NHS), 6-mercapto-1-hexanol, and 6-mercapto-1-hexanoic acid were obtained from Sigma-Aldrich (St. Louis, MO). Dithiothreitol (DTT), sodium phosphate dibasic heptahydrate (Na2HPO4·7H2O), sodium phosphate monobasic (NaH2PO4) and 2-(4-morpholino)ethanesulfonic acid ([…]) were purchased from Fisher Scientific (Hampton, NH). […] Cathepsin B solutions were activated by incubation in 25 mM MES buffer (pH=5.0) containing 5 mM DTT for 15 min before proteolysis experiments.
Electrochemical measurements were performed using an Ivium n-Stat Potentiostat (Eindhoven, The Netherlands) outfitted with five dual channel modules, allowing up to ten independent working electrodes to function simultaneously with a common reference and counter electrodes. […] In this study, the nine leads from the potentiostat (FIG. 9b) were interfaced with a breakout box, which was then connected to a custom-built electrochemical cell via a ribbon cable (FIG. 9c). The sensor chip consists of nine lithographically patterned Au working microelectrodes placed in the custom-built electrochemical cell (FIG. 9d) and electrical contact was made via pogo pins. All measurements were performed using a common mercury/mercurous sulfate reference electrode (Hg/Hg2SO4, MSE) filled with a saturated solution of K2SO4 (CH Instruments, Austin, TX) and a common Pt wire counter electrode.
Prior to use, the MEAs were sonicated in acetone for 1 minute, subsequently rinsed with methanol and isopropanol for 15 s and then dried by blowing with nitrogen. Next, the electrodes were placed in the experimental cell and electrochemically cleaned by cycling from −0.60 to 0.70 V vs. MSE in 0.10 M phosphate buffer (pH=7.4). For the experiments using an MEA modified with the same peptide-Fc substrate (i.e., H-15) on all nine microelectrodes, the whole chip was incubated in a mixture of 1.0 mM 6-mercapto-1-hexanol and 0.2 mM 6-mercapto-1-hexanoic acid in deionized water for 40 min to form a self-assembled monolayer (SAM). This step passivated the entire Au microelectrode surface while leaving adequate spacing between the exposed carboxyl functionalities. Next, the electrodes were incubated in a solution containing 2.0 mM peptide-Fc substrate (i.e., H-3, H-15, or H-16), 0.20 g/l EDC and 0.20 g/l sulfo-NHS for 2 hours at room temperature so that the peptides were covalently attached to the carboxyl groups of the SAM through the formation of amide bonds. The low ratio of carboxyl to hydroxyl groups at the SAM surface ensured a large separation between the peptide-Fc molecules which was important to reduce the steric hindrance during subsequent proteolysis measurements. Finally, the electrodes were rinsed with deionized water to remove any non-bound peptide-Fc substrate that may be physiosorbed on the surface. For multiplex experiments, the chip was masked with a ˜1.2 mm thick polydimethylsiloxane (PDMS) film punched with a 3×3 array of ˜0.7 mm diameter holes that were aligned on top of each Au microelectrodes. About 100 μl mixed thiol solution (6-mercapto-1-hexanol and 6-mercapto-1-hexanoic acid) as described above was added on the chip surface to fill all nine PDMS holes and was incubated for 40 min. Then, the microelectrodes and wells were rinsed and dried on a hot plate at 35° C. Finally, 0.50 μl of the EDC/sulfo-NHS/peptide-Fc (H-3, H-15, or H-16) reaction mixture was added to each well using a nanoinjector mounted on a x-y-z-micromanipulator and incubated for 2 h. […]

1/τ AVG (6.0 nM cathepsin B) | average values of 1/τ (6.0 nM cathepsin B) | average value of 1/τ (CH 1-6, 6.0 nM cathepsin B, MES buffer pH=5.0) | fitted value of 1/τ (CH 4, 6.0 nM cathepsin B, 25 mM MES buffer pH=5.0) | 1/τ Avg (average of channels 1-6, H-15 modified Au MEA, 6.0 nM cathepsin B, MES buffer pH=5.0) | Substance | 1/τ (individual channels 1-6 of H-15 modified Au MEA, 6.0 nM cathepsin B, MES buffer pH=5.0, FIG. 7)
8.90 s⁻¹ | (8.9±1.1)×10^−4 s^−1 | – | – | – | H2N-(CH2)4-CO-Pro-Leu-Ala-Gly-Val-Ala-NH-CH2-Fc ([Ava]PLAGVA-aminomethylferrocene) [Peptide H-16] | –
6.79 s⁻¹ | (6.8±1.8)×10^−4 s^−1 | (6.63±0.87)×10^−4 s^−1 | 0.000684 s⁻¹ | 0.000663 s⁻¹ | H2N-(CH2)4-CO-Pro-Leu-Ala-Phe-Val-Ala-NH-CH2-Fc ([Ava]PLAFVA-aminomethylferrocene) [Peptide H-15] | 0.000684 s⁻¹ and 0.000779 s⁻¹ and 0.000645 s⁻¹ and 0.00055 s⁻¹ and 0.000734 s⁻¹ and 0.000588 s⁻¹
7.36 s⁻¹ | (7.4±0.9)×10^−4 s^−1 | – | – | – | H2N-(CH2)4-CO-Pro-Leu-Arg-Phe-Gly-Ala-NH-CH2-Fc ([Ava]PLRFGA-aminomethylferrocene) [Peptide H-3] | –
